The assay deals with DraIII restriction endonuclease (Deinococcus radiophilus ATCC 27603). In words: crystal structure; DraIII incubated 1:1 with an 11-bp phosphorothioate canonical DNA duplex, SEC with 5 mmol/L MgCl2; crystals at 18°C, hanging drop, 0.1 mol/L Tris-Cl, 20% 2-propanol, 5% PEG 8000, pH 8.0; the DNA was not observed in the structure.

Turning to “DraIII restriction endonuclease (enzyme)”, the stoichiometry N was found to be 2.

For the origin of these results see PMC3996161.
